From US20260242735A1 (UNIVERSIT T BASEL, published 2026)

Experiments:
Test in all cases: flow cytometry, mutant on cells, IgG
human CD33 P19K = human CD33 P19K (human, UniProt P20138 18-364)
human CD33 N20W = human CD33 N20W (human, UniProt P20138 18-364)
human CD33 N20E = human CD33 N20E (human, UniProt P20138 18-364)
human CD33 N20V = human CD33 N20V (human, UniProt P20138 18-364)
human CD33 F21I = human CD33 F21I (human, UniProt P20138 18-364)
human CD33 W22S = human CD33 W22S (human, UniProt P20138 18-364)
human CD33 W22P = human CD33 W22P (human, UniProt P20138 18-364)
human CD33 W22E = human CD33 W22E (human, UniProt P20138 18-364)
human CD33 W22R = human CD33 W22R (human, UniProt P20138 18-364)
human CD33 Q24T = human CD33 Q24T (human, UniProt P20138 18-364)
human CD33 Q24R = human CD33 Q24R (human, UniProt P20138 18-364)
human CD33 V25L = human CD33 V25L (human, UniProt P20138 18-364)
human CD33 V25M = human CD33 V25M (human, UniProt P20138 18-364)
human CD33 T42N = human CD33 T42N (human, UniProt P20138 18-364)
human CD33 F44S = human CD33 F44S (human, UniProt P20138 18-364)
human CD33 F44E = human CD33 F44E (human, UniProt P20138 18-364)
human CD33 H45Y = human CD33 H45Y (human, UniProt P20138 18-364)
human CD33 P46S = human CD33 P46S (human, UniProt P20138 18-364)
human CD33 P46R = human CD33 P46R (human, UniProt P20138 18-364)
human CD33 P46H = human CD33 P46H (human, UniProt P20138 18-364)
human CD33 P46D = human CD33 P46D (human, UniProt P20138 18-364)
human CD33 I47G = human CD33 I47G (human, UniProt P20138 18-364)
human CD33 I47T = human CD33 I47T (human, UniProt P20138 18-364)
human CD33 I47T, sequence (P20138 18-364 I47T limits assumed): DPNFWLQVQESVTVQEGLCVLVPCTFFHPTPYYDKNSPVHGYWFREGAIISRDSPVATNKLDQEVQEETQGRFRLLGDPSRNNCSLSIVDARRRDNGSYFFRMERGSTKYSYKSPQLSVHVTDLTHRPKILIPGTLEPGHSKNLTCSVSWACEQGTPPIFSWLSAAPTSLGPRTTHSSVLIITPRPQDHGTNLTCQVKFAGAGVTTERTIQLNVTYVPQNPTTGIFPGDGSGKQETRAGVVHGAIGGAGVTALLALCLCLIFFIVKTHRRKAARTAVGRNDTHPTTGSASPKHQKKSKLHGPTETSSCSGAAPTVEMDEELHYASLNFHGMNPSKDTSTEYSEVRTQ

human CD33 V25M, sequence (P20138 18-364 V25M limits assumed): as the sequence (P20138 18-364 I47T limits assumed) above, with V8M, T30I counted along it
human CD33 I47G, sequence (P20138 18-364 I47G limits assumed): as the sequence (P20138 18-364 I47T limits assumed) above, with T30G counted along it
human CD33 W22E, sequence (P20138 18-364 W22E limits assumed): as the sequence (P20138 18-364 I47T limits assumed) above, with W5E, T30I counted along it
human CD33 H45Y, sequence (P20138 18-364 H45Y limits assumed): as the sequence (P20138 18-364 I47T limits assumed) above, with H28Y, T30I counted along it
human CD33 F21I, sequence (P20138 18-364 F21I limits assumed): as the sequence (P20138 18-364 I47T limits assumed) above, with F4I, T30I counted along it
human CD33 F44E, sequence (P20138 18-364 F44E limits assumed): as the sequence (P20138 18-364 I47T limits assumed) above, with F27E, T30I counted along it
human CD33 N20V, sequence (P20138 18-364 N20V limits assumed): as the sequence (P20138 18-364 I47T limits assumed) above, with N3V, T30I counted along it
human CD33 P46D, sequence (P20138 18-364 P46D limits assumed): as the sequence (P20138 18-364 I47T limits assumed) above, with P29D, T30I counted along it
human CD33 P46H, sequence (P20138 18-364 P46H limits assumed): as the sequence (P20138 18-364 I47T limits assumed) above, with P29H, T30I counted along it
human CD33 V25L, sequence (P20138 18-364 V25L limits assumed): as the sequence (P20138 18-364 I47T limits assumed) above, with V8L, T30I counted along it
human CD33 P46S, sequence (P20138 18-364 P46S limits assumed): as the sequence (P20138 18-364 I47T limits assumed) above, with P29S, T30I counted along it
human CD33 F44S, sequence (P20138 18-364 F44S limits assumed): as the sequence (P20138 18-364 I47T limits assumed) above, with F27S, T30I counted along it
human CD33 W22S, sequence (P20138 18-364 W22S limits assumed): as the sequence (P20138 18-364 I47T limits assumed) above, with W5S, T30I counted along it
human CD33 Q24T, sequence (P20138 18-364 Q24T limits assumed): as the sequence (P20138 18-364 I47T limits assumed) above, with Q7T, T30I counted along it
human CD33 N20W, sequence (P20138 18-364 N20W limits assumed): as the sequence (P20138 18-364 I47T limits assumed) above, with N3W, T30I counted along it
human CD33 W22P, sequence (P20138 18-364 W22P limits assumed): as the sequence (P20138 18-364 I47T limits assumed) above, with W5P, T30I counted along it
human CD33 N20E, sequence (P20138 18-364 N20E limits assumed): as the sequence (P20138 18-364 I47T limits assumed) above, with N3E, T30I counted along it
human CD33 T42N, sequence (P20138 18-364 T42N limits assumed): as the sequence (P20138 18-364 I47T limits assumed) above, with T25N, T30I counted along it
human CD33 W22R, sequence (P20138 18-364 W22R limits assumed): as the sequence (P20138 18-364 I47T limits assumed) above, with W5R, T30I counted along it
human CD33 Q24R, sequence (P20138 18-364 Q24R limits assumed): as the sequence (P20138 18-364 I47T limits assumed) above, with Q7R, T30I counted along it
human CD33 P19K, sequence (P20138 18-364 P19K limits assumed): as the sequence (P20138 18-364 I47T limits assumed) above, with P2K, T30I counted along it
human CD33 P46R, sequence (P20138 18-364 P46R limits assumed): as the sequence (P20138 18-364 I47T limits assumed) above, with P29R, T30I counted along it

| Binder | Mean % WT Binding (human CD33 P19K) [% WT binding] | Mean % WT Binding (human CD33 N20W) [% WT binding] | Mean % WT Binding (human CD33 N20E) [% WT binding] | Mean % WT Binding (human CD33 N20V) [% WT binding] | Mean % WT Binding (human CD33 F21I) [% WT binding] | Mean % WT Binding (human CD33 W22S) [% WT binding] | Mean % WT Binding (human CD33 W22P) [% WT binding] | Mean % WT Binding (human CD33 W22E) [% WT binding] | Mean % WT Binding (human CD33 W22R) [% WT binding] | Mean % WT Binding (human CD33 Q24T) [% WT binding] | Mean % WT Binding (human CD33 Q24R) [% WT binding] | Mean % WT Binding (human CD33 V25L) [% WT binding] | Mean % WT Binding (human CD33 V25M) [% WT binding] | Mean % WT Binding (human CD33 T42N) [% WT binding] | Mean % WT Binding (human CD33 F44S) [% WT binding] | Mean % WT Binding (human CD33 F44E) [% WT binding] | Mean % WT Binding (human CD33 H45Y) [% WT binding] | Mean % WT Binding (human CD33 P46S) [% WT binding] | Mean % WT Binding (human CD33 P46R) [% WT binding] | Mean % WT Binding (human CD33 P46H) [% WT binding] | also measured |
| --- | --- | --- | --- | --- | --- | --- | --- | --- | --- | --- | --- | --- | --- | --- | --- | --- | --- | --- | --- | --- | --- |
| Refmab #2 (antibody, human IgG1, V domains shown, Tested in IgG format; human IgG1 Fc silent (PG-LALA)) VH: QVQLVQSGAEVKKPGSSVKVSCKASGGTFSDYAISWVRQAPGQGLEWMGRIIPILGVADYAQKFQGRVTITADKSTRTAYMELSSLRSEDTAVYYCARNWADAFDIWGQGTMVTVSS VL: DIQLTQSPSSLSASVGDRVTITCRASQGISSVLAWYQQKPGKAPKLLIYDASSLESGVPSRFSGSGSGTDFTLTISSLQPEDFATYYCQQFDSSITFGQGTKLEIK | 115 | 61.2 | 120 | 116 | 86.8 | 105 | 136 | 107 | 115 | 95.2 | 96.8 | 109 | 83 | 98.2 | 0.8 | 1.7 | 80.7 | 102 | 64.7 | 95.1 | Mean % WT Binding (human CD33 P46D): 100 % WT binding; Mean % WT Binding (human CD33 I47G): 3.7 % WT binding; Mean % WT Binding (human CD33 I47T): 1.8 % WT binding |
| Refmab #1 (antibody, human IgG1, V domains shown, Tested in IgG format; human IgG1 (Absolute Antibody hP67.6, Cat. No. Ab00283-10.0); also called hP67.6) VH: EVQLVQSGAEVKKPGSSVKVSCKASGYTITDSNIHWVRQAPGQSLEWIGYIYPYNGGTDYNQKFKNRATLTVDNPTNTAYMELSSLRSEDTAFYYCVNGNPWLAYWGQGTLVTVSS VL: DIQLTQSPSTLSASVGDRVTITCRASESLDNYGIRFLTWFQQKPGKAPKLLMYAASNQGSGVPSRFSGSGSGTEFTLTISSLQPDDFATYYCQQTKEVPWSFGQGTKVEVK | 5.5 | 0.6 | 0.3 | 4.2 | 1.9 | 74.3 | 2.7 | 5 | 7.4 | 81.4 | 95.1 | 99.2 | 97.3 | 99.4 | 79.8 | 92.7 | 80.3 | 21.4 | 1 | 0.7 | Mean % WT Binding (human CD33 P46D): 0.6 % WT binding; Mean % WT Binding (human CD33 I47G): 105 % WT binding; Mean % WT Binding (human CD33 I47T): 97.2 % WT binding |
| Refmab #4 (antibody, human IgG1, V domains shown, Tested in IgG format; human IgG1 Fc silent (PG-LALA)) VH: QVQLVQSGAEVKKPGESVKVSCKASGYTFTNYGMNWVKQAPGQGLEWMGWINTYTGEPTYADKFQGRVTMTTDTSTSTAYMEIRNLGGDDTAVYYCARWSWSDGYYVYFDYWGQGTSVTVSS VL: DIVMTQSPDSLTVSLGERTTINCKSSQSVLDSSTNKNSLAWYQQKPGQPPKLLLSWASTRESGIPDRFSGSGSGTDFTLTIDSPQPEDSATYYCQQSAHFPITFGQGTRLEIK | 92 | 52.1 | 100 | 118 | 96.3 | 103 | 104 | 99.4 | 114 | 97.2 | 98.6 | 95 | 81.1 | 101 | 93.8 | 112 | 79.2 | 107 | 106 | 69.5 | Mean % WT Binding (human CD33 P46D): 110 % WT binding; Mean % WT Binding (human CD33 I47G): 72.5 % WT binding; Mean % WT Binding (human CD33 I47T): 82.4 % WT binding |
| Refmab #3 (antibody, human IgG1, V domains shown, Tested in IgG format; human IgG1 Fc silent (PG-LALA)) VH: QVQLVQSGAEVKKPGSSVKVSCKASGYTFTDYNMHWVRQAPGQGLEWIGYIYPYNGGTGYNQKFKSKATITADESTNTAYMELSSLRSEDTAVYYCARGRPAMDYWGQGTLVTVSS VL: DIQMTQSPSSLSASVGDRVTITCRASESVDNYGISFMNWFQQKPGKAPKLLIYAASNQGSGVPSRFSGSGSGTDFTLTISSLQPDDFATYYCQQSKEVPWTFGQGTKVEIK | 1.8 | 0.7 | 0.5 | 0.5 | 0.5 | 1.4 | 0.5 | 1.4 | 0.9 | 3.9 | 74.6 | 97.8 | 90.4 | 95.5 | 11.4 | 33.3 | 4 | 3.5 | 1 | 0.5 | Mean % WT Binding (human CD33 P46D): 0.6 % WT binding; Mean % WT Binding (human CD33 I47G): 107 % WT binding; Mean % WT Binding (human CD33 I47T): 72.4 % WT binding |
